Measurements published in patent publication US20040170955A1 (University of Texas, published 2004).
Ends that are not written are not given here.

Legend:
[1] = biological target: T1, GST-β3cyto (GST fusion protein of the β3 integrin cytoplasmic domain) (UniProt P05106 742-788); experiment: phage binding, colonies from β3-GST wells / BSA wells
T1 construct: domain: cytoplasmic domain; Recombinant GST fusion coated on microtiter wells; also called β3-GST; β3 cytoplasmic domain fusion protein; not shown: glutathione S-transferase (GST) fusion partner
Text: (§1) β3 and β5 cytoplasmic domain-binding peptides were isolated by screening multiple phage libraries with recombinant GST fusion proteins that contained either GST-β3cyto or GST-β5cyto coated onto microtiter wells. Immobilized GST was used as a negative control for enrichment during the panning of each cytoplasmic domain. Phage were sequenced from randomly selected clones after three rounds of panning as disclosed elsewhere (Koivunen et al., 1995; Pasqualini et al., 1995). […] Randomly selected clones from panning rounds II and III were sequenced. Amino acid sequences of the phagemid encoded peptides were deduced from nucleotide sequences. The ratios were calculated by dividing the number of colonies recovered from β3-GST-coated wells and those recovered from GST or BSA.

[2] = biological target: T1, GST-β3cyto (GST fusion protein of the …); experiment: phage binding, colonies from β3-GST wells / GST wells
Text: as §1

[3] = biological target: GST-β3cyto (GST fusion protein of the β3 integrin cytoplasmic domain) (UniProt P05106); experiment: phosphorylated phage binding, β3 colonies / BSA colonies
[4] = biological target: GST-β3cyto (GST fusion protein of the β3 integrin cytoplasmic domain) (UniProt P05106); experiment: phosphorylated phage binding, β3 colonies / GST colonies
[5] = biological target: GST-β3cyto (GST fusion protein of the β3 integrin cytoplasmic domain) (UniProt P05106); experiment: phage binding to β3, colonies with Fyn-phosphorylated phage / unphosphorylated phage
[6] = biological target: T2, Aminopeptidase A (APA, EC 3.4.11.7) on SK-RC-49/APA cells (UniProt Q07075 1-957, limits assumed); experiment: phage binding to SK-RC-49/APA cells against SK-RC-49 parental cells
T2 construct: whole, on cells

[7] = biological target: T3, GST-β5cyto (GST fusion protein of the β5 integrin cytoplasmic domain) (UniProt P18084 743-799); experiment: phage binding, colonies from β5-GST wells / BSA wells
T3 construct: domain: cytoplasmic domain; Recombinant GST fusion coated on microtiter wells; also called β5-GST; β5 cytoplasmic domain fusion protein; not shown: glutathione S-transferase (GST) fusion partner
T3 sequence (looked up): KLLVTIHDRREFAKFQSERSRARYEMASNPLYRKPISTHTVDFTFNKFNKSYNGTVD
Text: as §1

[8] = biological target: T3, GST-β5cyto (GST fusion protein of the …); experiment: phage binding, colonies from β5-GST wells / GST wells
Text: as §1

[9] = biological target: GST-β5cyto (GST fusion protein of the β5 integrin cytoplasmic domain) (UniProt P18084); experiment: phage binding, colonies from β5-GST wells / BSA wells
[10] = biological target: GST-β5cyto (GST fusion protein of the β5 integrin cytoplasmic domain) (UniProt P18084); experiment: phage binding, colonies from β5-GST wells / GST wells
[11] = biological target: GST-β5cyto (GST fusion protein of the β5 integrin cytoplasmic domain) (UniProt P18084); experiment: phosphorylated phage binding, β5 colonies / BSA colonies
[12] = biological target: GST-β5cyto (GST fusion protein of the β5 integrin cytoplasmic domain) (UniProt P18084); experiment: phosphorylated phage binding, β5 colonies / GST colonies
[13] = biological target: GST-β5cyto (GST fusion protein of the β5 integrin cytoplasmic domain) (UniProt P18084); experiment: phage binding to β5, colonies with Fyn-phosphorylated phage / unphosphorylated phage
[14] = biological target: GST-β3cyto (GST fusion protein of the β3 integrin cytoplasmic domain) (UniProt P05106); experiment: phage binding, colonies from β3-GST wells / BSA wells
[15] = biological target: GST-β3cyto (GST fusion protein of the β3 integrin cytoplasmic domain) (UniProt P05106); experiment: phage binding, colonies from β3-GST wells / GST wells
[16] = biological target: T2, Aminopeptidase A (APA, EC 3.4.11.7) on …; experiment: phage binding to SK-RC-49/APA cells against parental cells (not shown)

T2 sequence (Q07075 whole entry): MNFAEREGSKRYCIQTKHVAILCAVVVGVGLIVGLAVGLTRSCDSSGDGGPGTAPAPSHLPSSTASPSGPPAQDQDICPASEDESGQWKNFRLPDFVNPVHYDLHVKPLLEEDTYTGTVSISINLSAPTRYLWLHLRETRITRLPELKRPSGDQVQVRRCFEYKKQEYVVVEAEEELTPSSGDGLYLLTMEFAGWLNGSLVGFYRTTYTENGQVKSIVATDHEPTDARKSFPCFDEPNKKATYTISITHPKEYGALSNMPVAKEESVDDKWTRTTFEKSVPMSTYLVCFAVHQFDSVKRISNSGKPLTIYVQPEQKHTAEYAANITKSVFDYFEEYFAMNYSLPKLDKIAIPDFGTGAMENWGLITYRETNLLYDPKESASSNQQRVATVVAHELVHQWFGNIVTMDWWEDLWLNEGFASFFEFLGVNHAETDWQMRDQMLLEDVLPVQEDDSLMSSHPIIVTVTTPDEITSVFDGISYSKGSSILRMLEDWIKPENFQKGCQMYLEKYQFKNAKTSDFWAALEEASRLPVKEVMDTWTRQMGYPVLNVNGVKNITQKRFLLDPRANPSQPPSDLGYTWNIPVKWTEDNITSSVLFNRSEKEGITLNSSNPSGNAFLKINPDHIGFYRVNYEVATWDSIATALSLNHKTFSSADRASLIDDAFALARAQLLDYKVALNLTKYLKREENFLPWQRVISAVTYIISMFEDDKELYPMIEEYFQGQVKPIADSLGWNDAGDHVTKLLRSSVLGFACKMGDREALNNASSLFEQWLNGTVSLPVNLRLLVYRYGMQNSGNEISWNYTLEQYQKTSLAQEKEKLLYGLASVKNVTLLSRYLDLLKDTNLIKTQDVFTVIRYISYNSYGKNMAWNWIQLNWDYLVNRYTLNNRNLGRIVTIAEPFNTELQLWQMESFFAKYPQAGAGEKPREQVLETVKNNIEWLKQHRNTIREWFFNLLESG
GST-β3cyto (GST fusion protein of the β3 integrin cytoplasmic domain) (UniProt P05106), sequence (P05106 742-788): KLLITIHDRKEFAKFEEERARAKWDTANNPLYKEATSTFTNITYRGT
T1 sequence (P05106 742-788): as above

B1: phage displaying CARLEVLLPC (SEQ ID NO:94) (peptide)
peptide: CARLEVLLPC
modifications: cysteine pairing not given here; also: displayed on phage
notes: whole phage tested
β3/BSA Ratio [1]: 18.7 ratio | β3/GST Ratio [2]: 2.8 ratio

B2: phage displaying CLRQSYSYNC (SEQ ID NO:104) (peptide)
peptide: CLRQSYSYNC
modifications: cysteine pairing not given here; also: displayed on phage
notes: whole phage tested
β3/BSA Ratio [1]: 3.2 ratio | β3/GST Ratio [2]: 2.4 ratio

B3: Fyn-phosphorylated phage displaying … (SEQ ID NO:117) (peptide)
peptide: MLLGYRFEK
modifications: not fully specified (residue 5); also: displayed on phage
β3 or β5/BSA [3]: 2.7 | β3 or β5/GST [4]: 3.5 | Phos/Unphos [5]: 2.5

B4: phage displaying CNLSSEQC (SEQ ID NO:103) (peptide)
peptide: CNLSSEQC
modifications: cysteine pairing not given here; also: displayed on phage
notes: whole phage tested
β3/BSA Ratio [1]: 62 ratio | β3/GST Ratio [2]: 2.7 ratio

B5: phage displaying SDNRYIGSW (SEQ ID NO:97) (peptide)
peptide: SDNRYIGSW
notes: whole phage tested
β3/BSA Ratio [1]: 32 ratio | β3/GST Ratio [2]: 3.3 ratio

B6: phage displaying CGTGCAVECEVVC (SEQ ID NO:128) (peptide)
peptide: CGTGCAVECEVVC
notes: whole phage tested
binding result [6]: no binding

B7: phage displaying CYIWPDSGLC (SEQ ID NO:105) (peptide)
peptide: CYIWPDSGLC
modifications: cysteine pairing not given here; also: displayed on phage
notes: whole phage tested
β5/BSA Ratio [7]: 193 ratio | β5/GST Ratio [8]: 5.2 ratio

B8: phage displaying … (SEQ ID NO:108) (peptide)
peptide: CKLWQEDGY
β5/BSA Ratio [9]: 665 | β5/GST Ratio [10]: 1.8

B9: phage displaying CWDQNYLDDC (SEQ ID NO:109) (peptide)
peptide: CWDQNYLDDC
notes: whole phage tested
β5/BSA Ratio [7]: 100 ratio | β5/GST Ratio [8]: 1.5 ratio

B10: Fyn-phosphorylated phage displaying … (SEQ ID NO:120) (peptide)
peptide: TLRKYFHSS
modifications: not fully specified (residue 5); also: displayed on phage
β3 or β5/BSA [11]: 15.2 | β3 or β5/GST [12]: 3.8 | Phos/Unphos [13]: 3.8

B11: Fyn-phosphorylated phage displaying … (SEQ ID NO:118) (peptide)
peptide: TMLRYTVRL
modifications: not fully specified (residue 5); also: displayed on phage
β3 or β5/BSA [11]: 2.2 | β3 or β5/GST [12]: 3.4 | Phos/Unphos [13]: 14.3

B12: phage displaying CSGLCTVQCLEGC (SEQ ID NO:130) (peptide)
peptide: CSGLCTVQCLEGC
notes: one of the other phage selected in round 2
binding result [6]: no binding

B13: phage displaying VVISYSMPD (SEQ ID NO:112) (peptide)
peptide: VVISYSMPD
notes: whole phage tested
β5/BSA Ratio [7]: 28 ratio | β5/GST Ratio [8]: 3.8 ratio

B14: phage displaying CFQNRC (SEQ ID NO:102) (peptide)
peptide: CFQNRC
modifications: cysteine pairing not given here; also: displayed on phage
notes: whole phage tested
β3/BSA Ratio [1]: 16 ratio | β3/GST Ratio [2]: 3.1 ratio

B15: phage displaying … (SEQ ID NO:101) (peptide)
peptide: AGWLYMSWK
β3/BSA Ratio [14]: 2.4 | β3/GST Ratio [15]: 1.8

B16: phage displaying CYNLCIRECESICGADGACWTWCADGCSRSC (SEQ ID NO:125) (peptide)
peptide: CYNLCIRECESICGADGACWTWCADGCSRSC
notes: whole phage tested; also called tandem phage
fold enrichment relative to SK-RC-49 parental cells [16]: 6 fold

B17: phage displaying CEQRQTQEGC (SEQ ID NO:93) (peptide)
peptide: CEQRQTQEGC
modifications: cysteine pairing not given here; also: displayed on phage
notes: whole phage tested
β3/BSA Ratio [1]: 14 ratio | β3/GST Ratio [2]: 4.3 ratio

B18: phage displaying CSMMCLEGCDDWC (SEQ ID NO:131) (peptide)
peptide: CSMMCLEGCDDWC
notes: as for B12
binding result [6]: no binding

B19: phage displaying YEWWYWSWA (SEQ ID NO:98) (peptide)
peptide: YEWWYWSWA
notes: whole phage tested
β3/BSA Ratio [1]: 28.1 ratio | β3/GST Ratio [2]: 2.2 ratio

B20: phage displaying DEEGYYMMR (SEQ ID NO:110) (peptide)
peptide: DEEGYYMMR
notes: whole phage tested
β5/BSA Ratio [7]: 29 ratio | β5/GST Ratio [8]: 11.5 ratio

B21: phage displaying YDWWYPWSW (SEQ ID NO:95) (peptide)
peptide: YDWWYPWSW
notes: whole phage tested
β3/BSA Ratio [1]: 163 ratio | β3/GST Ratio [2]: 5.6 ratio

B22: phage displaying CAVACWADCQLGC (SEQ ID NO:129) (peptide)
peptide: CAVACWADCQLGC
notes: as for B12
binding result [6]: no binding

B23: phage displaying KQFSYRYLL (SEQ ID NO:111) (peptide)
peptide: KQFSYRYLL
notes: whole phage tested
β5/BSA Ratio [7]: 8 ratio | β5/GST Ratio [8]: 4.5 ratio

B24: phage displaying DWFSYYEL (SEQ ID NO:114) (peptide)
peptide: DWFSYYEL
β5/BSA Ratio [9]: 153 | β5/GST Ratio [10]: 1.7

B25: phage displaying SDWYYPWSW (SEQ ID NO:100) (peptide)
peptide: SDWYYPWSW
notes: whole phage tested; Selected on β3
β3/BSA Ratio [1]: 157 ratio | β3/GST Ratio [2]: 2.1 ratio

B26: phage displaying GLDTYRGSP (SEQ ID NO:96) (peptide)
peptide: GLDTYRGSP
notes: whole phage tested
β3/BSA Ratio [1]: 48 ratio | β3/GST Ratio [2]: 4.1 ratio

B27: Fyn-phosphorylated phage displaying … (SEQ ID NO:115) (peptide)
peptide: GGGSYRHVE
modifications: not fully specified (residue 5); also: displayed on phage
β3 or β5/BSA [3]: 5.3 | β3 or β5/GST [4]: 1.5 | Phos/Unphos [5]: 13.2

B28: phage displaying CKEDGWLMTC (SEQ ID NO:107) (peptide)
peptide: CKEDGWLMTC
notes: whole phage tested
β5/BSA Ratio [7]: 836 ratio | β5/GST Ratio [8]: 2.3 ratio

B29: Fyn-phosphorylated phage displaying … (SEQ ID NO:119) (peptide)
peptide: TMLRYFMFP
modifications: not fully specified (residue 5); also: displayed on phage
β3 or β5/BSA [11]: 3.8 | β3 or β5/GST [12]: 2.3 | Phos/Unphos [13]: 4.2

B30: phage displaying KVSWYLDNG (SEQ ID NO:99) (peptide)
peptide: KVSWYLDNG
notes: whole phage tested
β3/BSA Ratio [1]: 20 ratio | β3/GST Ratio [2]: 2.1 ratio

B31: phage displaying CEPYWDGWFC (SEQ ID NO:106) (peptide)
peptide: CEPYWDGWFC
modifications: cysteine pairing not given here; also: displayed on phage
notes: whole phage tested
β5/BSA Ratio [7]: 400 ratio | β5/GST Ratio [8]: 3.1 ratio

B32: phage displaying SDWYYPWSW (SEQ ID NO:113) (peptide)
peptide: SDWYYPWSW
notes: whole phage tested; Selected on β5
β5/BSA Ratio [7]: 304 ratio | β5/GST Ratio [8]: 2.4 ratio

B33: phage displaying CLGQCASICVNDC (SEQ ID NO:126) (peptide)
peptide: CLGQCASICVNDC
notes: whole phage tested
fold enrichment relative to SK-RC-49 parental cells [16]: 6 fold

B34: phage displaying CPKVCPRECESNC (SEQ ID NO:127) (peptide)
peptide: CPKVCPRECESNC
notes: whole phage tested
fold enrichment relative to SK-RC-49 parental cells [16]: 6 fold
